Positions count from the first letter of the chain named. Names may count otherwise.
T1: EsCas13d, nuclease-dead (Eubacterium siraeum, UniProt B0MS50, R295A;H300A;R849A;H854A)
T1 sequence: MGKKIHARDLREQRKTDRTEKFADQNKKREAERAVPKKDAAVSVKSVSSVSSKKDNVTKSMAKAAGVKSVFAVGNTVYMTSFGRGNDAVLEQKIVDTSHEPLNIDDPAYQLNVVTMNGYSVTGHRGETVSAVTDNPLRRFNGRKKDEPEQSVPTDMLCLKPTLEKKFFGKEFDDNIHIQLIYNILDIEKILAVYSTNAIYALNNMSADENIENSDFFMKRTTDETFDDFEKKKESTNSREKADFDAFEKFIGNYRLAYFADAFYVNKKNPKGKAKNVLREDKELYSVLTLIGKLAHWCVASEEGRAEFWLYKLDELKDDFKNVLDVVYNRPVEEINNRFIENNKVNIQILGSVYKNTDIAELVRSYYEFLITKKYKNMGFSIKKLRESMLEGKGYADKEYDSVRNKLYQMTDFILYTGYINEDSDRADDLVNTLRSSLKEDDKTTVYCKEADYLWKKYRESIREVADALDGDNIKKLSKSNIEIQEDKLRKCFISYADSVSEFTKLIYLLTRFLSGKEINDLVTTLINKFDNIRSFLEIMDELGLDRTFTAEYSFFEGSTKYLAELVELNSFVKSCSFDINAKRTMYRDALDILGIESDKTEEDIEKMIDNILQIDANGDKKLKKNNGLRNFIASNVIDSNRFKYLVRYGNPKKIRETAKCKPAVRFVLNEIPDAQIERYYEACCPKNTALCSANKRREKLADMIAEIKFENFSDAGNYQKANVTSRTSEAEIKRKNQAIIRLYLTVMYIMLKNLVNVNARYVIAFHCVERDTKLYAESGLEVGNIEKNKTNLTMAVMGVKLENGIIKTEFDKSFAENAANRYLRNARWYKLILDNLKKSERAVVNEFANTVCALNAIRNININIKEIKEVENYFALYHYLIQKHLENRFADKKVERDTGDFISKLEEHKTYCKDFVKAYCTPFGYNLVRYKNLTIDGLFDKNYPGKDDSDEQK

B1: target 2 MT 5'PFS AUG 3'PFS AUC (mixed)
RNA 1: CACCCGUGCAAAAUUGCAGGGGUCUAAAACCUUCUCCAAAUUGUUUCAUCCU
RNA 2: GGGAAUGGAUCCACAUCUACGAAUUCAUGAGGAUGAAACAAUUUGGAGAAGAUCAGAUCGGAAGAGCACACGU
B2: target 1 A14G (mixed)
RNA 1: CACCCGUGCAAAAAUGCAGGGGUCUAAAACUGAGCGGAUAACCUCUCUAUGG
RNA 2: GGGAAUGGAUCCACAUCUACGAAUUCGUACCAUAGAGGGGUUAUCCGCUCACCGAGAUCGGAAGAGCACACGU
B3: target 2 MT 5'PFS AUG 3'PFS AUA (mixed)
RNA 1: B1 RNA 1
RNA 2: B1 RNA 2 with C54A
B4: target 2 MT 5'PFS GAU 3'PFS CUU (mixed)
RNA 1: B1 RNA 1
RNA 2: B1 RNA 2 with A27G, U28A, G29U, A52C, C54U
B5: target 2 MT 5'PFS UAG 3'PFS UCA (mixed)
RNA 1: B1 RNA 1
RNA 2: B1 RNA 2 with A27U, U28A, A52U, U53C, C54A
B6: target 2 MT 5'PFS AAC 3'PFS UCU (mixed)
RNA 1: B1 RNA 1
RNA 2: B1 RNA 2 with U28A, G29C, A52U, U53C, C54U
B7: target 2 MT 5'PFS GAU 3'PFS CUG (mixed)
RNA 1: B1 RNA 1
RNA 2: B1 RNA 2 with A27G, U28A, G29U, A52C, C54G
B8: target 2 MT 5'PFS UAG 3'PFS UCU (mixed)
RNA 1: B1 RNA 1
RNA 2: B1 RNA 2 with A27U, U28A, A52U, U53C, C54U
B9: target 2 MT 5'PFS AAC 3'PFS UCA (mixed)
RNA 1: B1 RNA 1
RNA 2: B1 RNA 2 with U28A, G29C, A52U, U53C, C54A
B10: target 2 MT 5'PFS GAU 3'PFS CUC (mixed)
RNA 1: B1 RNA 1
RNA 2: B1 RNA 2 with A27G, U28A, G29U, A52C
B11: target 2 MT 5'PFS GAU 3'PFS CUA (mixed)
RNA 1: B1 RNA 1
RNA 2: B1 RNA 2 with A27G, U28A, G29U, A52C, C54A
B12: target 2 MT 5'PFS AUG 3'PFS AUU (mixed)
RNA 1: B1 RNA 1
RNA 2: B1 RNA 2 with C54U
B13: target 1 C6G,U8C (mixed)
RNA 1: B2 RNA 1
RNA 2: B2 RNA 2 with G38A, U44C, C46G
B14: target 2 MT 5'PFS ACA 3'PFS CAU (mixed)
RNA 1: B1 RNA 1
RNA 2: B1 RNA 2 with U28C, G29A, A52C, U53A, C54U
B15: target 2 MT 5'PFS ACA 3'PFS CAG (mixed)
RNA 1: B1 RNA 1
RNA 2: B1 RNA 2 with U28C, G29A, A52C, U53A, C54G
B16: target 2 MT 5'PFS CUC 3'PFS CGC (mixed)
RNA 1: B1 RNA 1
RNA 2: B1 RNA 2 with A27C, G29C, A52C, U53G
B17: target 2 MT 5'PFS CUC 3'PFS CGA (mixed)
RNA 1: B1 RNA 1
RNA 2: B1 RNA 2 with A27C, G29C, A52C, U53G, C54A
B18: target 2 MT 5'PFS UUU 3'PFS UCA (mixed)
RNA 1: B1 RNA 1
RNA 2: B1 RNA 2 with A27U, G29U, A52U, U53C, C54A
B19: target 2 MT 5'PFS UUU 3'PFS UCC (mixed)
RNA 1: B1 RNA 1
RNA 2: B1 RNA 2 with A27U, G29U, A52U, U53C
B20: target 2 MT 5'PFS GGA 3'PFS AGU (mixed)
RNA 1: B1 RNA 1
RNA 2: B1 RNA 2 with A27G, U28G, G29A, U53G, C54U
B21: target 2 MT 5'PFS GGA 3'PFS AGG (mixed)
RNA 1: B1 RNA 1
RNA 2: B1 RNA 2 with A27G, U28G, G29A, U53G, C54G
B22: target 2 MT 5'PFS GGA 3'PFS AGA (mixed)
RNA 1: B1 RNA 1
RNA 2: B1 RNA 2 with A27G, U28G, G29A, U53G, C54A
B23: target 2 MT 5'PFS GGA 3'PFS AGC (mixed)
RNA 1: B1 RNA 1
RNA 2: B1 RNA 2 with A27G, U28G, G29A, U53G
B24: target 1 A1C,A14G (mixed)
RNA 1: B2 RNA 1
RNA 2: B2 RNA 2 with A51C
B25: target 2 MT 5'PFS UUG 3'PFS AAC (mixed)
RNA 1: B1 RNA 1
RNA 2: B1 RNA 2 with A27U, U53A
B26: target 2 MT 5'PFS UUG 3'PFS AAA (mixed)
RNA 1: B1 RNA 1
RNA 2: B1 RNA 2 with A27U, U53A, C54A
B27: target 2 MT 5'PFS UUG 3'PFS AAG (mixed)
RNA 1: B1 RNA 1
RNA 2: B1 RNA 2 with A27U, U53A, C54G
B28: target 2 MT 5'PFS GAU 3'PFS UUU (mixed)
RNA 1: B1 RNA 1
RNA 2: B1 RNA 2 with A27G, U28A, G29U, A52U, C54U
B29: target 2 MT 5'PFS UUG 3'PFS AAU (mixed)
RNA 1: B1 RNA 1
RNA 2: B1 RNA 2 with A27U, U53A, C54U
B30: target 2 MT 5'PFS AAA 3'PFS AGG (mixed)
RNA 1: B1 RNA 1
RNA 2: B1 RNA 2 with U28A, G29A, U53G, C54G
B31: target 2 MT 5'PFS GGU 3'PFS AGG (mixed)
RNA 1: B1 RNA 1
RNA 2: B1 RNA 2 with A27G, U28G, G29U, U53G, C54G
B32: target 2 MT 5'PFS GGU 3'PFS AGC (mixed)
RNA 1: B1 RNA 1
RNA 2: B1 RNA 2 with A27G, U28G, G29U, U53G
B33: target 2 MT 5'PFS GGU 3'PFS AGA (mixed)
RNA 1: B1 RNA 1
RNA 2: B1 RNA 2 with A27G, U28G, G29U, U53G, C54A

These binders were tested against T1, EsCas13d, nuclease-dead (assay: crRNA (strand 1, pre-loaded); Mg2+; 40 mM Tris-HCl pH 7.5, 150 mM NaCl, 6 mM MgCl2, 1 mM DTT, 0.1% Tween-20, 0.2 mg/ml BSA; 25 C; 10 min per concentration, then washed). Conditions: tags: His6-TwinStrep-SUMO cleaved; N-terminal SNAP kept (SNAP-Surface 488); label: 3' end held by stalled T7 RNA polymerase.

Binder | Kd [nM]
B1 | 9.3 ± 1.6
B2 | 13.9 ± 0.7
B3 | 9 ± 1.1
B4 | 22 ± 4
B5 | 4.8 ± 0.7
B6 | 14 ± 4
B7 | 14.9 ± 2
B8 | 38 ± 10
B9 | 9.3 ± 2.5
B10 | 17.8 ± 2.4
B11 | 11.9 ± 1.7
B12 | 9.9 ± 1.2
B13 | 11.9 ± 0.6
B14 | 4.4 ± 1
B15 | 4.8 ± 0.9
B16 | 2.25 ± 0.29
B17 | 1.62 ± 0.31

Binder | Kd [nM]
B18 | 8.7 ± 1
B19 | 20.7 ± 1.9
B20 | 14.1 ± 1.4
B21 | 8.4 ± 0.6
B22 | 8.7 ± 1.1
B23 | 7.3 ± 0.7
B24 | 25 ± 4
B25 | 9.8 ± 1.2
B26 | 6.7 ± 0.6
B27 | 9.6 ± 0.7
B28 | 47 ± 13
B29 | 9.8 ± 1.2
B30 | 4.7 ± 0.9
B31 | 14.4 ± 1.3
B32 | 13.8 ± 1.9
B33 | 10.6 ± 1.5
